Earlier results on one molecule are cited in PMC4319847 (PLoS ONE, 2015).

The data set relates to Yeast importin-α. The conditions noted are these: in the crystal (1BK6) and in solution by DLS; ref [13]. The text has this: The open homodimerization probably attributes to H119 at the top of the loop; this loop corresponds to the K ...

B1: Yeast importin-α: Yeast importin-α (1BK6), first crystal structure of an importin-α shown to dimerize (protein, UniProt Q02821 1-542, looked up)
Importin subunit alpha: MDNGTDSSTSKFVPEYRRTNFKNKGRFSADELRRRRDTQQVELRKAKRDEALAKRRNFIPPTDGADSDEEDESSVSADQQFYSQLQQELPQMTQQLNSDDMQEQLSATVKFRQILSREHRPPIDVVIQAGVVPRLVEFMRENQPEMLQLEAAWALTNIASGTSAQTKVVVDADAVPLFIQLLYTGSVEVKEQAIWALGNVAGDSTDYRDYVLQCNAMEPILGLFNSNKPSLIRTATWTLSNLCRGKKPQPDWSVVSQALPTLAKLIYSMDTETLVDACWAISYLSDGPQEAIQAVIDVRIPKRLVELLSHESTLVQTPALRAVGNIVTGNDLQTQVVINAGVLPALRLLLSSPKENIKKEACWTISNITAGNTEQIQAVIDANLIPPLVKLLEVAEYKTKKEACWAISNASSGGLQRPDIIRYLVSQGCIKPLCDLLEIADNRIIEVTLDALENILKMGEADKEARGLNINENADFIEKAGGMEKIFNCQQNENDKIYEKAYKIIETYFGEEEDAVDETMAPQNAGNTFGFGSNVNQQFNFN
Take B1: the dimerization result is “dimerize not only in the crystal but also in solution”.
